± gives the uncertainty stated by the source.

B1: Zinc finger MYM-type protein 3, residues 589 to 668; numbered along this chain, Q14202 (parent)
chain: LSCHYCHSLFSGKPEVLDWQDQVFQFCCRDCCEDFKRLRGVVSQCEHCRQEKLLHEKLRFSGVEKSFCSEGCVLLYKQDF

This data set covers variants of B1. As to the kind of experiment: abundance fitness (aPCA) (normalised: wild type 0, dead -1); higher = more abundant; growth selection in yeast, the domain comes from the species named. The note with it: Homo sapiens.
On to K52A, for which the abundance fitness was -0.244 ± 0.14.
Consider K13F, for which the abundance fitness is -0.135 ± 0.067.
Take K13R: the abundance fitness amounted to 0.05 ± 0.046.
The figure for K13T is -0.081 ± 0.064.
Consider K13C, for which the abundance fitness is -0.117 ± 0.12.
In the case of K13Q, the abundance fitness worked out at 0.039 ± 0.054.
As to E70R, the abundance fitness is -0.687 ± 0.31.
In the case of E70D, the abundance fitness stood at 0 ± 0.5.
For E70Q, the abundance fitness was 0.199 ± 0.14.
As to E70V, the abundance fitness is -0.066 ± 0.12.
On to E70P, for which the abundance fitness amounted to 0.069 ± 0.21.
E70S: the abundance fitness came to 0.067 ± 0.12.
With E70C the figure was 0.121 ± 0.14; with E70M, -0.152 ± 0.22.
With C3R the figure was -0.949 ± 0.063; with C3V, -0.871 ± 0.074; with D21M, 0.068 ± 0.054.
Regarding D34Q, the abundance fitness is -0.136 ± 0.05.
Regarding D34G, the abundance fitness was 0.024 ± 0.04.
Turning to D34H, the abundance fitness was -0.057 ± 0.071.
With D34M the figure was 0.17 ± 0.044; with D34S, -0.164 ± 0.045; with D34E, -0.01 ± 0.045.
Consider D34R, for which the abundance fitness is -0.093 ± 0.042.
Take D34P: the abundance fitness was -0.384 ± 0.076.
Turning to D34K, the abundance fitness is -0.008 ± 0.063.
With D34I the figure was -0.18 ± 0.11.
Consider D34T, for which the abundance fitness was -0.178 ± 0.056.
Consider G62Q, for which the abundance fitness is -0.865 ± 0.36.
In the case of G62R, the abundance fitness was -0.788 ± 0.2.
Take G62P: the abundance fitness was -1.01 ± 0.25.
As to H55R, the abundance fitness came to 0.057 ± 0.09.
On to H55Y, for which the abundance fitness worked out at 0.223 ± 0.38.
Regarding H55Q, the abundance fitness is -0.516 ± 0.39.
For H55K, the abundance fitness is -0.04 ± 0.17.
As to H55W, the abundance fitness was -0.334 ± 0.17.
H55C: the abundance fitness is -0.053 ± 0.14.
As for H55I, the abundance fitness was 0.199 ± 0.35.
On to H7Y, for which the abundance fitness was determined as 0.112 ± 0.053.
For H7G, the abundance fitness came to 0.117 ± 0.043.
With H7F, the abundance fitness came to 0.165 ± 0.15.
Take S11Q: the abundance fitness is -0.275 ± 0.14.
S11I: the abundance fitness is -0.312 ± 0.093.
On to S11E, for which the abundance fitness was -0.276 ± 0.3.
Regarding S11V, the abundance fitness was -0.418 ± 0.045.
The figure for S11M is -0.426 ± 0.072; for S11T it is -0.155 ± 0.049; for F26R it is -0.603 ± 0.049.
Regarding F26D, the abundance fitness was -0.657 ± 0.11.
As for F26I, the abundance fitness is -0.731 ± 0.14.
As to F26H, the abundance fitness was -0.666 ± 0.15.
F26P: the abundance fitness is -0.664 ± 0.071.
As to V63A, the abundance fitness is -0.109 ± 0.13.
The figure for V63R is -0.285 ± 0.11; for V63S it is -0.255 ± 0.2; for V63P it is -0.198 ± 0.33.
With V63Q the figure was -0.548 ± 0.36; with L38Y, -0.041 ± 0.15; with L38P, 0.062 ± 0.078.
On to E33D, for which the abundance fitness amounted to 0.072 ± 0.056.
As to E33Q, the abundance fitness was -0.038 ± 0.044.
In the case of E33T, the abundance fitness was -0.093 ± 0.058.
As for E33P, the abundance fitness was -0.811 ± 0.091.
Take E33F: the abundance fitness is -0.103 ± 0.11.
Turning to G12S, the abundance fitness was -0.038 ± 0.043.
With G12K, the abundance fitness was -0.02 ± 0.05.
As for G12Y, the abundance fitness was -0.75 ± 0.15.
With G12N, the abundance fitness is -0.187 ± 0.087.
With G12W, the abundance fitness is -0.27 ± 0.046.
Take G12H: the abundance fitness is -0.15 ± 0.069.
The figure for L58F is 0.065 ± 0.28.
Regarding L58E, the abundance fitness was determined as 0.094 ± 0.15.
With L58Q the figure was -0.146 ± 0.19; with L58W, -0.23 ± 0.14; with L58G, 0.012 ± 0.082.
With L58T the figure was -0.364 ± 0.18; with Q50S, -0.356 ± 0.24.
With Q50C, the abundance fitness is -0.013 ± 0.24.
Turning to Q50P, the abundance fitness is -0.48 ± 0.24.
With Q50K, the abundance fitness was -0.071 ± 0.21.
Turning to Q50E, the abundance fitness is -0.242 ± 0.11.
As for C45T, the abundance fitness was -0.641 ± 0.26.
With C45F the figure was -0.356 ± 0.26.
With C45P, the abundance fitness is -1.1 ± 0.46.
With C45S the figure was -0.942 ± 0.17; with L17R, -0.348 ± 0.047.
L17D: the abundance fitness is -0.332 ± 0.06.
With L17P the figure was -0.311 ± 0.071; with L17A, -0.035 ± 0.043.
L17S: the abundance fitness is -0.262 ± 0.048.
As for L53G, the abundance fitness was -0.445 ± 0.089.
With L53P the figure was -0.091 ± 0.22.
In the case of K36W, the abundance fitness is -0.181 ± 0.043.
Turning to K36F, the abundance fitness was -0.088 ± 0.074.
Turning to L54R, the abundance fitness is -0.664 ± 0.14.
Consider L54H, for which the abundance fitness is -0.503 ± 0.41.
As to L54D, the abundance fitness is -0.589 ± 0.3.
Turning to Q25V, the abundance fitness amounted to 0.032 ± 0.041.
With Q25F, the abundance fitness was -0.035 ± 0.073.
The figure for Q25M is 0.198 ± 0.059; for Q25H it is 0.122 ± 0.064.
For the variant Q25L, the abundance fitness was -0.163 ± 0.046.
Turning to Q25S, the abundance fitness was determined as 0.016 ± 0.044.
Regarding Q25A, the abundance fitness was -0.044 ± 0.04.
On to E15F, for which the abundance fitness was -0.049 ± 0.15.
As to P14L, the abundance fitness is -0.523 ± 0.054.
Take P14D: the abundance fitness is -0.24 ± 0.077.
The figure for P14S is -0.386 ± 0.056.
As to P14R, the abundance fitness was -0.459 ± 0.048.
Regarding P14W, the abundance fitness is -0.528 ± 0.061.
With R59Q the figure was 0.11 ± 0.29; with R59K, 0.419 ± 0.13; with E46W, -0.245 ± 0.14.
For the variant E46S, the abundance fitness was 0.385 ± 0.11.
For E46Y, the abundance fitness is -0.354 ± 0.38.
The figure for E46Q is 0.281 ± 0.21.
The figure for E46A is 0.932 ± 0.072.
Turning to C28V, the abundance fitness was -0.321 ± 0.043.
On to C28G, for which the abundance fitness was 0.08 ± 0.038.
C28F: the abundance fitness was -0.83 ± 0.12.
For the variant C28A, the abundance fitness was 0.017 ± 0.041.
The figure for C28P is -0.607 ± 0.076.
Consider H47M, for which the abundance fitness was -0.061 ± 0.2.
As to H47E, the abundance fitness is -0.406 ± 0.16.
H47Q: the abundance fitness is 0.151 ± 0.15.
Turning to H47A, the abundance fitness was -0.169 ± 0.13.
The figure for H47C is 0.345 ± 0.4; for E64M it is -0.316 ± 0.18.
On to E64L, for which the abundance fitness was -0.633 ± 0.25.
E64G: the abundance fitness is -0.48 ± 0.21.
The figure for G71R is 0.501 ± 0.073; for G71E it is 0.62 ± 0.085; for G71M it is 0.721 ± 0.24.
With G71Q the figure was 0.378 ± 0.16.
On to G71K, for which the abundance fitness was 0.337 ± 0.22.
Consider G71S, for which the abundance fitness is 0.453 ± 0.1.
Consider G71V, for which the abundance fitness is -0.043 ± 0.11.
For C48R, the abundance fitness is -0.553 ± 0.12.
As for C48T, the abundance fitness was -1.05 ± 0.46.
With C48E, the abundance fitness is -1.04 ± 0.31.
For K77A, the abundance fitness is -0.78 ± 0.19.
With K77R, the abundance fitness was -0.455 ± 0.14.
With S69D, the abundance fitness is -0.702 ± 0.29.
As to S69P, the abundance fitness is -0.445 ± 0.29.
The figure for S69K is -0.282 ± 0.26; for S69R it is -0.456 ± 0.11.
In the case of S69A, the abundance fitness is -0.023 ± 0.16.
Turning to S69G, the abundance fitness was -0.64 ± 0.1.
As to F24N, the abundance fitness was 0.001 ± 0.083.
As for F24D, the abundance fitness was -0.376 ± 0.064.
The figure for F24T is -0.033 ± 0.048.
For F24E, the abundance fitness is -0.143 ± 0.045.
Take F24L: the abundance fitness was determined as 0.203 ± 0.041.
In the case of S2W, the abundance fitness was -0.069 ± 0.06.
S2Y: the abundance fitness amounted to 0.293 ± 0.056.
Turning to S2P, the abundance fitness was -0.39 ± 0.061.
For S2F, the abundance fitness worked out at 0.141 ± 0.084.
As for S2D, the abundance fitness came to 0.412 ± 0.055.
For the variant D79P, the abundance fitness came to 0.119 ± 0.22.
For D79S, the abundance fitness was determined as 0.241 ± 0.15.
With D79K the figure was 0.856 ± 0.22; with D79T, -0.07 ± 0.14; with D18F, -0.101 ± 0.12.
D18R: the abundance fitness is 0.155 ± 0.044.
Turning to D18E, the abundance fitness is -0.06 ± 0.054.
With D18H the figure was -0.08 ± 0.15.
With D18S the figure was 0.017 ± 0.048.
